For one molecule, Kd results are on record in publication PMC10725492 (Translational Psychiatry, 2023).

No end group written: not given here. *: point of attachment. Palmitoyl = CCCCCCCCCCCCCCCC(=O)*

The assay addresses T1, recombinant APP N-terminal (18-612) fragment (UniProt P05067-4 18-612).
T1 construct: also called APP18-612; N-terminal APP; source: expressed by KMD Bioscience
Put plainly: SPR. As to conditions: both partners purified.

T1 sequence (P05067 other isoform, or with tags, fused parts or gaps): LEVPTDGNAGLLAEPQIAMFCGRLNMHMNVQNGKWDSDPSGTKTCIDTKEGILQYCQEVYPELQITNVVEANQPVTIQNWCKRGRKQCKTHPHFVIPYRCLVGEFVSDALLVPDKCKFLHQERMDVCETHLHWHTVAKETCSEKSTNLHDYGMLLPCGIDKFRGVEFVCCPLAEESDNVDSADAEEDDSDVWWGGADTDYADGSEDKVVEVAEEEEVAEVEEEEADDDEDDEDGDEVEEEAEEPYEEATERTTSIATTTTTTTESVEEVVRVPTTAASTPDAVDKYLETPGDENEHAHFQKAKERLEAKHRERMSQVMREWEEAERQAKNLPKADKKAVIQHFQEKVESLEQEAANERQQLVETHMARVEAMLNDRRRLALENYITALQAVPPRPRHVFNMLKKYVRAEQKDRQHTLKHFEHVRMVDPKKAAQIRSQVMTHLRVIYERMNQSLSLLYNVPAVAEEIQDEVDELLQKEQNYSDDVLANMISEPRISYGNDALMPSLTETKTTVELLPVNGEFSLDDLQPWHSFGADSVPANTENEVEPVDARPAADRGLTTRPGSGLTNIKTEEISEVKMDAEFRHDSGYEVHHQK

As to KKKKKKLKVRLASHLRK(Palmitoyl)ELRKRLLRDA (not fully specified) [AY51 peptide], the Kd came to 554 nM.
